Assays:
[1] = target: T1, porcine trypsin (porcine, UniProt P00761 9-231); experiment: chromogenic (S-2251) amidolytic inhibition assay, trypsin 50 nM
Method: (§1) Trypsin and plasmin inhibition assays were performed as described elsewhere (Petersen et al., Biochemistry, 35:266-272, 1996). Briefly, trypsin and plasmin were incubated with various concentrations of inhibitor preparations for 15 minutes at 37° C. in a 96-well microtitration plate. The chromogenic substrate S-2251 was then added and residual amidolytic activity was measured in a Molecular Devices UVₘₐₓ kinetic microplate reader.

[2] = target: T2, human plasmin (human, UniProt P00747 97-810, limits assumed); experiment: chromogenic amidolytic inhibition assay, plasmin; reference full-length TFPI-2
Method: as §1

[3] = target: T1, porcine trypsin; experiment: chromogenic amidolytic inhibition assay, trypsin; reference BPTI
Method: as §1

[4] = target: T2, human plasmin; experiment: chromogenic (S-2251) amidolytic inhibition assay, plasmin 30 nM
Method: Example I provides an illustrative example of assessment of the inhibitory activity. […] The chromogenic substrate S-2251 (D-Val-Leu-Lys-p-nitroanilide; DiaPharma Group Inc., West Chester, Ohio) was then added and residual plasmin amidolytic activity was measured at 405 nm in a Molecular Devices UVₘₐₓ kinetic microplate reader.
as §1

[5] = target: T1, porcine trypsin; experiment: chromogenic amidolytic inhibition assay, trypsin; reference full-length TFPI-2
Method: as §1

[6] = target: T3, factor VIIa-tissue factor complex (human recombinant factor VIIa with recombinant soluble human tissue factor) (human, UniProt P08709 61-466; P13726 33-251, limits assumed); experiment: chromogenic (S-2288) amidolytic inhibition assay, FVIIa 50 nM / soluble TF 100 nM
T3 construct: The complex was formed from 50 nM factor VIIa and 100 nM soluble tissue factor in 5 mM CaCl2; Factor VIIa is itself a two-chain enzyme; also called FVIIa-TF; VIIa-TF
Method: (§2) Recombinant soluble human tissue factor (100 nM) and factor VIIa (50 nM) were incubated in a TBS-BSA buffer/5 mM CaCl₂ for 15 minutes at 37° C. Following this incubation, aliquots (100 μl) were dispensed into a 96-well microtitration plate and treated with serial dilutions of inhibitors dissolved in TBS buffer. After 15 minutes of incubation, 30 μl of S-2288 (final concentration, 1 mM) was added to each well and the absorbance at 405 nm was determined as described earlier.

[7] = target: T2, human plasmin; experiment: chromogenic amidolytic inhibition assay, plasmin; reference BPTI
Method: as §1

[8] = target: T3, factor VIIa-tissue factor complex …; experiment: chromogenic amidolytic inhibition assay, FVIIa-TF; reference wild-type KD1
Method: as §2

[9] = target: T2, human plasmin; experiment: chromogenic amidolytic inhibition assay; reference wild-type KD1
Method: as §1, §2

[10] = target: T3, factor VIIa-tissue factor complex …; experiment: as above
Method: as §1, §2

[11] = target: T1, porcine trypsin; experiment: as above
Method: as §1, §2

[12] = target: T2, human plasmin; experiment: chromogenic amidolytic inhibition assay, plasmin; reference wild-type KD1
Method: as §1

T1 sequence (P00761 9-231 limits assumed): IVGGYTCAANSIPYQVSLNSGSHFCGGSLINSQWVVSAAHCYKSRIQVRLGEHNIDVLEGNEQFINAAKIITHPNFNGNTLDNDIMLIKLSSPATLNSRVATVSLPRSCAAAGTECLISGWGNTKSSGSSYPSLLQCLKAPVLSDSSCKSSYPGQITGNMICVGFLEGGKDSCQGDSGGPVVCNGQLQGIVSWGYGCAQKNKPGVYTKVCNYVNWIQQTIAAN
T2 sequence (P00747 97-810 limits assumed): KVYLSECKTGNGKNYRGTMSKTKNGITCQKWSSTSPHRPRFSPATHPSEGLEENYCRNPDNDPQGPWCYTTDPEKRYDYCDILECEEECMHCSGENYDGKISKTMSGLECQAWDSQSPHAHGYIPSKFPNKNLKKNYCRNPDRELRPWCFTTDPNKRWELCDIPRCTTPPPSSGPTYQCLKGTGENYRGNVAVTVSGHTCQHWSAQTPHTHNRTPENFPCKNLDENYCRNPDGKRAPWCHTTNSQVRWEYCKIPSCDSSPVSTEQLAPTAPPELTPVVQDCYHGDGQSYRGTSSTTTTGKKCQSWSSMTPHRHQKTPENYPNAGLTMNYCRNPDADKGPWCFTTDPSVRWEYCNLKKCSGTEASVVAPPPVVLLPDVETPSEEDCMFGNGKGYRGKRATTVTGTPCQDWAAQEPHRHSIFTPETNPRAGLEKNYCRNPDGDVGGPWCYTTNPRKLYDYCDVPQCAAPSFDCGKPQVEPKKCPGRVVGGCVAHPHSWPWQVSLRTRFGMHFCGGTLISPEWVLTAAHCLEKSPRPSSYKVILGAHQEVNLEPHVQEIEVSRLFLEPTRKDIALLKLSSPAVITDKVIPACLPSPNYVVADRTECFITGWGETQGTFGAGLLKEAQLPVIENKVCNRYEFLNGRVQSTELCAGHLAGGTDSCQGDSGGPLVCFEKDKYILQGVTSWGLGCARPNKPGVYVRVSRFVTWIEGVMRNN
T3 sequence (P08709 61-466 limits assumed, chain 1 of 2): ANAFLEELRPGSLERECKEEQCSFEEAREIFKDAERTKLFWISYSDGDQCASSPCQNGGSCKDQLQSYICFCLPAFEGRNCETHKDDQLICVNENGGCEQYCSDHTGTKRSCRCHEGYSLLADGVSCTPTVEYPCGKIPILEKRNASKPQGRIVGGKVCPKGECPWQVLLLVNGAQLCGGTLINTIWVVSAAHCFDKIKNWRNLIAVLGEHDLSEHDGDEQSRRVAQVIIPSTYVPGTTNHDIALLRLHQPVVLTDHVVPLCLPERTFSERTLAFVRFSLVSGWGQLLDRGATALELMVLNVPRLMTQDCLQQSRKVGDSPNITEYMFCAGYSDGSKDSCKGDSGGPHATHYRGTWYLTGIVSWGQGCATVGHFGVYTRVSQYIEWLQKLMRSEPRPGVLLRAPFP
T3 sequence (P13726 33-251 limits assumed, chain 2 of 2): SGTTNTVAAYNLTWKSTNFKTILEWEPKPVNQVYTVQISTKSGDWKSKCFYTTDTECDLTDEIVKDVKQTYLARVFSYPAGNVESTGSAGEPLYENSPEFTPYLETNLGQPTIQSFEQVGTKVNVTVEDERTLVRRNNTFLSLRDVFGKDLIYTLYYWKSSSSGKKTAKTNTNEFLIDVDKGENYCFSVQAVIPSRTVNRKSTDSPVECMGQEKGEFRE

Row | Binder | Ki [1] [nM] | Ki [4] [nM] | Ki [6] [nM] | further results
1 | wild-type first Kunitz-type domain (KD1) of human TFPI-2, His-tagged, E. coli (other, the monomer was purified; also called wild-type KD1; TFPI-2 KD1; not shown: N-terminal decahistidine-tag leader and enterokinase cleavage site from pET19b) DAAQEPTGNNAEICLLPLDYGPCRALLLRYYYDRYTQSCRQFLYGGCEGNANNFYTWEACDDACWRIEKVPKV | 13 | 3 | 1640 | fold more potent than full-length TFPI-2 [2]: 3 fold; fold less potent than BPTI [3]: 2 fold; fold higher inhibitory activity than full-length TFPI-2 [5]: ~2 fold; fold higher Ki than BPTI [7]: ~3 fold
2 | L26Q KD1 (other, Point mutant of His-tagged KD1, KD1 numbering; also called L26Q (L17Q); not shown: N-terminal decahistidine-tag leader and enterokinase cleavage site from pET19b) DAAQEPTGNNAEICLLPLDYGPCRAQLLRYYYDRYTQSCRQFLYGGCEGNANNFYTWEACDDACWRIEKVPKV | 162 | 29 | 54000 | fold reduction in inhibitory potency (against wild-type KD1) [9]: ≥ 10 fold; fold reduction in inhibitory potency (against wild-type KD1) [10]: ≥ 10 fold; fold reduction in inhibitory potency (against wild-type KD1) [11]: ≥ 10 fold
3 | D19A KD1 (other, Point mutant of His-tagged KD1, KD1 numbering; also called D19A (D10A); not shown: N-terminal decahistidine-tag leader and enterokinase cleavage site from pET19b) DAAQEPTGNNAEICLLPLAYGPCRALLLRYYYDRYTQSCRQFLYGGCEGNANNFYTWEACDDACWRIEKVPKV | 15 | 118 | 1960 | fold loss of inhibitory activity (against wild-type KD1) [12]: ~40 fold
4 | R29D KD1 (other, Point mutant of His-tagged KD1, KD1 numbering; also called R29D (R20D); not shown: N-terminal decahistidine-tag leader and enterokinase cleavage site from pET19b) DAAQEPTGNNAEICLLPLDYGPCRALLLDYYYDRYTQSCRQFLYGGCEGNANNFYTWEACDDACWRIEKVPKV | 4600 | 261 | 44600 | 
5 | R29A KD1 (other, Point mutant of His-tagged KD1, KD1 numbering; also called R29A (R20A); not shown: N-terminal decahistidine-tag leader and enterokinase cleavage site from pET19b) DAAQEPTGNNAEICLLPLDYGPCRALLLAYYYDRYTQSCRQFLYGGCEGNANNFYTWEACDDACWRIEKVPKV | 52 | 12 | 3930 | 
6 | R29K KD1 (other, Point mutant of His-tagged KD1, KD1 numbering; also called R29K (R20K); not shown: N-terminal decahistidine-tag leader and enterokinase cleavage site from pET19b) DAAQEPTGNNAEICLLPLDYGPCRALLLKYYYDRYTQSCRQFLYGGCEGNANNFYTWEACDDACWRIEKVPKV | 20 | 5 | 1120 | 
7 | recombinant human tissue factor pathway inhibitor-2 (TFPI-2), full-length (other, Eukaryotically expressed recombinant full-length protein, described as a 213 amino acid polypeptide and prepared by a published method (Sprecher et al.); also called full-length TFPI-2; intact TFPI-2) DAAQEPTGNNAEICLLPLDYGPCRALLLRYYYDRYTQSCRQFLYGGCEGNANNFYTWEACDDACWRIEKVPKVCRLQVSVDDQCEGSTEKYFFNLSSMTCEKFFSGGCHRNRIENRFPDEATCMGFCAPKKIPSFCYSPKDEGLCSANVTRYYFNPRYRTCDAFTYTGCGGNDNNFVSREDCKRACAKALKKKKKMPKLRFASRIRKIRKKQF | 21 | 9 | 1910 | 

More lines, main results first:

Row | Ki [1] [nM] | Ki [4] [nM] | Ki [6] [nM] | Binder | further results
8 | 8 | 16 | 1350 | Y20A KD1 (other, Point mutant of His-tagged KD1, KD1 numbering; also called Y20A (Y11A); not shown: N-terminal decahistidine-tag leader and enterokinase cleavage site from pET19b) DAAQEPTGNNAEICLLPLDAGPCRALLLRYYYDRYTQSCRQFLYGGCEGNANNFYTWEACDDACWRIEKVPKV | 
9 | 8 | 0.85 | 8550 | R24K KD1 (other, also called R24K (R15K); R24K KD1 polypeptide; not shown: N-terminal extension from the expression vector) DAAQEPTGNNAEICLLPLDYGPCKALLLRYYYDRYTQSCRQFLYGGCEGNANNFYTWEACDDACWRIEKVPKV | fold reduction of inhibitory activity (against wild-type KD1) [8]: ~5 fold
10 | 296 | 48 | 55700 | R24Q KD1 (other, Point mutant of His-tagged KD1, KD1 numbering; also called R24Q (R15Q); not shown: N-terminal decahistidine-tag leader and enterokinase cleavage site from pET19b) DAAQEPTGNNAEICLLPLDYGPCQALLLRYYYDRYTQSCRQFLYGGCEGNANNFYTWEACDDACWRIEKVPKV | 
11 | 42 | 59 | 26000 | G21D KD1 (other, Point mutant of His-tagged KD1, KD1 numbering; also called G21D (G12D); not shown: N-terminal decahistidine-tag leader and enterokinase cleavage site from pET19b) DAAQEPTGNNAEICLLPLDYDPCRALLLRYYYDRYTQSCRQFLYGGCEGNANNFYTWEACDDACWRIEKVPKV | 
12 | 155 | 79 | 61200 | F42A KD1 (other, Point mutant of His-tagged KD1, KD1 numbering; also called F42A (F33A); not shown: N-terminal decahistidine-tag leader and enterokinase cleavage site from pET19b) DAAQEPTGNNAEICLLPLDYGPCRALLLRYYYDRYTQSCRQALYGGCEGNANNFYTWEACDDACWRIEKVPKV | 
